The DeepSol protein solubility set

experiment: soluble on expression in E. coli; label from the status in PepcDB or PDB records

Sequence	soluble on expression in E. coli
MSLVAFHEVRFPLRLALGVSGGPVRRTDIVNLSNGRENRNQRWRNARRAYDAGSGIRSVADLYEVLAFFEARRGEMYGFRFRDPVDFKSCPPGETPAATDQRIGTGDGVVTGFQLVKTYADAGGSFSRRIDKPVEGSVIVSVEGVKAAPTDLSVDHATGMVIFRAGRAPPTGAVIRAGFEFDVPVRFAIDRIDINVTAFEAGRIPSIPLMEILPEGHHHHHH	soluble
MSLVDTEIWLRLMSISSLYGDDMVRIAHWLARQSHIDAVVLQQTGLTLRQAQRFLSFPRKSIESSLCWLEQPNHHLIPADSEFYPPQLLATTDYPGALFVEGELHALHSFQLAVVGSRAHSWYGERWGRLFCETLAKHGVTITSGLARGIDGVAHKAALQVNGVSIAVLGNGLNTIHPRRHARLAASLLEQGGALVSEFPLDVPPLAYNFPRRNRIISGLSKGVLVVEAALRSGSLVTARCALEQGREVFALPGPIGNPGSEGPHWLIKQGAILVTEPEEILENLQFGLHWLPDAPENSFYSPDQEDVALPFPELLANVGDEVTPVDVVAERAGQPVPEVVTQLLELELAGWIAAVPGGYVRLRRACHVRRTNVFVEGHHHHHH	soluble
MSLVEELLKITLKSDELHRRLGGGIPAGTIMLIEGDRGTGKSILSQRLLYGFLMNGYTSSYVSSQYTTVEYIKQMMSISYDVIPFLIRKKLVFVSLYPLLSGVSEERKFLSRLLGEPRLWDQDVVIIDSFSSVLSREQDVRAVRNFLMYIKKLSSLGKVIILTANPEELSRDVMFLLEEASTLLIRLNVRVFGGDLKNSATIVKYNNAKGAFQKIIPFRVEPKVGLVVEIAAVVEGHHHHHH	soluble
MSLVLIQGAGIAGLALAREFTKAGIDWLLVERASEIRPIGTGITLASNALTALSSTLDLDRLFRRGMPLAGINVYAHDGSMLMSMPSSLGGNSRGGLALQRHELHAALLEGLDESRIRVGVSIVQILDGLDHERVTLSDGTVHDCSLVVGADGIRSSVRRYVWPEATLRHSGETCWRLVVPHRLEDAELAGEVWGHGKRLGFIQISPREMYVYATLKVRREEPEDEEGFVTPQRLAAHYADFDGIGASIARLIPSATTLVHNDLEELAGASWCRGRVVLIGDAAHAMTPNLGQGAAMALEDAFLLARLWCLAPRAETLILFQQQREARIEFIRKQSWIVGRLGQWESPWSVWLRNTLVRLVPNASRRRLHQRLFTGVGEMAAQEGHHHHHH	not soluble
MSLVLPSGAFTLKNVTVPAAIFGQRGDLISTDIGIVDGQISAPGGKVIEMAEAMVLPAFVDCHTHLDKGHILPRAQNPDGTFVGALTSVREDHLNWTSKDVRTRADFSIRCAYAHGTRAIRTHVDSMNGQYKRSWPVFAGLREKWANKVELQMTSLITCESYGMPEYAEIAATVAHFDGVLGMVSFPMPDLKKVLLSHFETAGNLGLALDFHTDETMDPSSETLRVIAECVMETGFCGRVLVGHCCSLSQQEENLAMDTLDLVAKAKIDVVSLPMCNLYLQDRHAGRTPRGRGVTLVHEMKARGINVSFASDNTRDPFYAYGDMDMLEVMRMATRIAHLDHSDFDWVKSFSQTPAEVCDFPDLSLAHGTTADLVIFNARNWNELYSRPQSDRIVLRNGIAIDRKLPSYSELDALLEAYKEGHHHHHH	soluble
MSLVLQMKSGGVVSDARTELDTQRLAKYIGGKHALVAQGGGQRGIFTAGVLDAFLLSNFDPYHEFYGTSAGALNLCAFLSRQTGLSKAFILELTTRAEFFHLFSYIRRKQYMNMQWALDRIGEYPYRLDLDMARQALGKRKAYAAVTSADDLKDAYFPMLGADWQQVLLATCAIPGLYPEPVTLAGKQYIDGGVSASIPVQEAWRKEARFITVIRTEFMSKEEETPSPSATELPLWLREPLNHLQHQLQHKWSGWRQEWNEFLQQQKLRAKEQKKEQKHLDALNGGRWLFGADDIYRLSHLLGSKFDAGLADLLMVHYQTYTLTSEFLDAHHDDTFIAQIMPSEPLHSNSLLSSPEALQYDYELGLKAGYRFLKAYSEAETFRKEGHHHHHH	soluble
MSLVMGQEKLYIEKELSWLSFNERVLQEAADKSNPLIERMRFLGIYSNNLDEFYKVRFAELKRRIIISEEQGSNAHSRHLLGKIQSRVLKADQEFDGLYNELLLEMARNQIFLINERQLSVNQQNWLRHYFKQYLRQHITPILINPDTDLVQFLKDDYTYLAVEIIRSDSIRYALLEIPSDKVPRFVNLPPEAPRRRKPMILLDNILRYCLDDIFKGFFDYDALNAYSMKMTRDAEYDLVHEMEASLMELMSSSLKQRLTAEPVRFVYQRDMPNALVEVLREKLTISRYDSIVPGGRYHNFKDFINFPNVGKANLVNKPLPRLRHIWFDKAQFRNGFDAIRERDVLLYYPYHTFEHVLELLRQASFDPSVLAIKINIYRVAKDSRIIDSMIHAAHNGKKVTVVVELQARFDEEANIHWAKRLTEAGVHVIFSAPGLKIHAKLFLISRKENGEVVRYAHIGTGNFNEKTARLYTDYSLLTADARITNEVRRVFNFIENPYRPVTFDYLMVSPQNSRRLLYEMVDREIANAQQGLPSGITLKLNNLVDKGLVDRLYAASSSGVPVNLLVRGMCSLIPNLEGISDNIRAISIVDRYLEHDRVYIFENGGDKKVYLSSADWMTRNIDYRIEVATPLLDPRLKQRVLDIIDILFSDTVKARYIDKELSNRYVPRGNRRKVRAQLAIYDYIKSLEQPEEGHHHHHH	soluble
MSLVMSMANKREPAPGWPIVSGEYVVGNPESCVGVVTLGSHGLEQACIDAGAAIAGPCHTENLGIEKVVANYISNPNIRFMILCGSEVQGHITGQCFKALWENGIGDDGGIIGAKGAIPFLENVNKEAVERFRRQIVEVVDLIDCEDIGKITQAIKECLSKDPGAIDEDPFIIELEGGKGGGEEEEGVIKPITPEMAIIESRMRLIGNEMCYNGLLAKWQAGYYNGKEGHHHHHH	not soluble
MSLVNQLSLFIDVVQQGSFTKAAALHDMDNSALSKQIKKLEAELGVQLLNRSTRTFSLTPAGEEILEQAYQLVGSLDNVKSIADSYQAVPKGRIRITAPLHIGQGYLQPVISQFMTTYPDVEVVLMMDDKRSDIISEHFDVAFRLGRLDDSSLIAKKVADIRGVILASHSLIERFGEPSTPEELVNLPSVIYSNGTLTVDTVRLGESPDSSQFKSYKMKGNYKVNDVRTLLSAVQDGLGYAVVASSNLERSIESMGLTTLLTDYPLCNQGLAIYALYPHRKQTALVREFISAVQKHIGHPPLWEQHIPNFASLYPVKKGQ	not soluble
MSLVSGFSVTLGEATSSNPSYKSAVMDYFKAKTDKDLQSADIKIVTASEVNEVSRGVTGRVYSPSQILSCAMVDLSYSDGIKVSVDTSKIRVVTPEMYASALRSSGIDRGYVVVTSPVPASGEAALAGVLKSYEIAVGEQIPEEAKRVSVEEIYLQSRLVNETNATGDRVAELFDEVKNRTQSQNLQDPADIQRVVVDVSQQMNINLTETQVQQVADSVAASQRVQGSLTEFKQRLEGVSQQVGGSGILDQIYAFLQSIYNYIMGIASPEGHHHHHH	soluble
MSLWKNFNFVTKYFTKRRQRYITKTIAMNQQEFQLREITYQDIKDLLAIEREVYAGELPWTMSAFMAELGSKAPHLYLLAAINGKTVGFIGCRIQGTDAHITNVAVHTAYQGLGLGRSLIEETRIFAKKNRCETLSLEVRMSNVKAQRLYRKIGFVSQTVKKGYYDENNEDALEMIIDLKEEEGHHHHHH	soluble
MSLYGRHTISIILREIFRLMDYPSIDTLLESAHIVTLPMKYPFMGLSERQAVLFEGPNSWAEYSPFMGCNDTRMWLASAIEYGWGNTNVLSVPNLDLDNTNFASRSKYGYIANPQTSNKDHSDNKRFYTQTKNHREIPVNAILPDIPASKMSEILGKDLQGCKCVKIKVGKHFQDRDIHRIRAVLDFMGADTMLRLDANCKWNVSETLNNLDVLEDNDLLENVSYIEQPCRTTRELITLKQKMDTRGYVTKIAIDESLRDLLLHWQKNRKWSNNSGITYTTELRETLSACDMLVLKLQPMGGMRAVADLLESIKNNIKVNVGYTVSSSLETSLGIEMGLALALNLPNITLPVGLATAGLLDADITDDPLLPNKGYITPRKIEVNKKLLNRYAADKRHVVWWHRRIRAAHRALFQDLSDEGHHHHHH	not soluble
MSLYHYFRPAQRSVFGDLMRDMAQMERQFTPVCRGSPSESSEIVNNDQKFAINLNVSQFKPEDLKINLDGHTLSIQGEQELKTEHGYSKKSFSRVILLPEDVDVGAVASNLSEDGKLSIEAPKKEAIQGRSIPIQQAPVEQKTSE	not soluble
MSLYKDDSLTLHTDLYQINMMQVYFEQGIHNRHAVFEVYFRKEPFNNGYAVFAGLQRMVEYLEQFQFSETDLAYLEELGYPENFLTYLKELRLELTIRSAKEGDLVFANEPIVQVEGPLGQCQLVETALLNIVNFQTLIATKAARIRSVIEDEPLLEFGTRRAQELDAAIWGTRAAMIGGADATSNVRAGKRFDIPVSGTHAHALVQAYGNDYDAFMAYAKTHKDCVFLVDTYDTLKVGVPTAIRVAKEMGDKINFLGVRLDSGDLAYLSKTVRQQLDDAGFTEAKIYASNDLDENTILNLKMQKAKIDVWGVGTKLITAYDQPALGAVYKIVSIEQEDGSMRDTIKLSNNAEKVSTPGKKQVWRITSREKGKSEGDYITFTDINVNELTEIEMFHPTYTYIKKTVKEFDAIPLLVDIFVKGELVYQLPTLAEIKAYAKKEFDKLWDEYKRVLNPQDYPVDLARDVWQNKMALIDNIRKDAYGKSEEGHHHHHH	soluble
MSLYKDDSLTLHTDLYQINMMQVYFNQGIHNKRAVFEVFFRKEPFANGYAVFAGLERMIAYLQGLSFSETDIAYLEELGYPADFVAYLKEFKLELSVKSAKEGDLVFANEPIVQIEGPLAQCQLVETAILNIVNFQTLIATKAARIRSVIEDEPLLEFGTRRAQEMDAAIWGTRAAVIGGANATSNVRAGKLFGIPVSGTHAHALVQAYGNDYDAFMAYAGTHKDCVFLVDTYDTLRLGVPAAIRVASELGDKINFLGVRIDSGDMAYLSKKVRKLLDEAGYPHAKIYASNDLDENTILNLKMQKAKIDIWGVGTKLITAYDQPALGAVYKIVSIEDDNGVMQDTIKLSNNAEKVSTPGKKQVWRITSRAKGKSEGDYITFTDTDVNSLDEIDMFHPTYTYINKKVRDFDAVPLLVDIFDQGKLVYTQPSLSDIQDYARREFDKLWDEYKRVLNPQDYPVDLACDVWQNKVNLIDRIRKEAYEKGDVKEGHHHHHH	soluble
MSLYKLYSMQRSGNSYKVRLALALLDAPYRAVEVDILRGESRTPDFLAKNPSGQVPLLETAPGRYLAESNAILWYLAVGTSLAPDTRMDRAEALQWMFFEQHALEPNIGSAYFWLCLVKGGRDLQTHALEDWLERGYAALQVMENHLKTNDYFAAGQLTIADIALYGYTHVADQCDFDLSTFPAVNAWLRRVEQTPGFITMDWTPETIAADPTSFAAEGHHHHHH	soluble
MSLYKVYGDYRSGNCYKIKLMLNLLGLPYEWQAVDILGGDTQTEAFLAKNPNGKIPVLELEDGTCLWESNAILNFLADGSQFLPSEPRLRTQVLQWQFFEQYSHEPYIAVARFIQLYEGLPEERREEYLKLHKRGYKALDVMEKQLSRTPYLVGEHYSIADIALYAYTHVADEGGFDLSRYPGIQAWMQRVQSHPRHVPMLDEGHHHHHH	soluble
